Consider three molecules from patent publication US20040176573A1.

One assay deals with HLA-A11 (human). As to the kind of experiment: assembly assay: stabilisation of 35S-labelled HLA-A11 from TAP-deficient cell lysate, W6/32 immunoprecipitation, IEF gel. As to conditions: remark: other sources report otherwise.
The next assay addresses HLA-B7 (human). As to the kind of experiment: assembly assay for peptide binding to MHC class I (HLA-B7).

With LAQCFFCFK [Sur 54-62], the C50 with HLA-A11 (human) was 0.4 µM.
In the case of QPRAPIRPI (modifications not checked) [C6], in the assay with HLA-B7 (human), the C50 worked out at 0.1 µM.
In the case of RPPIFIRRL (modifications not checked) [C7], the C50 with HLA-B7 (human) came to 0.5 µM.
